Results from US20250122508A1 (K2B THERAPEUTICS, published 2025).

B1: mouse CD47 on the surface of mouse red blood cells and CT26.CL25 cells (receptor, UniProt Q61735 19-303, looked up)
chain: QLLFSNVNSIEFTSCNETVVIPCIVRNVEAQSTEEMFVKWKLNKSYIFIYDGNKNSTTTDQNFTSAKISVSDLINGIASLKMDKRDAMVGNYTCEVTELSREGKTVIELKNRTVSWFSPNEKILIVIFPILAILLFWGKFGILTLKYKSSHTNKRIILLLVAGLVLTVIVVVGAILLIPGEKPVKNASGLGLIVISTGILILLQYNVFMTAFGMTSFTIAILITQVLGYVLALVGLCLCIMACEPVHGPLLISGLGIIALAELLGLVYMKFVASNQRTIQPPRNR
notes: whole, on cells; also called CD47 present on the surface of the CT26.CL25 cells
B2: vSIRPα labeled with Cy5.5 (receptor)
chain: EEELQIIQPDKSVLVAAGETATLRCTITSLFPVGPIQWFRGAGPGRVLIYNQRQGPFPRVTTVSDTTKRNNMDFSIRIGNITPADAGTYYCIKFRKGSPDDVEFKSGAGTELSVRAKP
modifications: Cy5.5 label (site not stated)
notes: also called Cy5.5-labeled vSIRPα

What was measured:
[1] = target: T1, Murine TSP-1 (7859-TH, R&D Systems) labeled with Cy5.5 (murine, UniProt P35441 19-1170, Cy5.5 label (site not stated)); assay: flow cytometry of CT26.CL25 cells after incubation with mouse RBC loaded with 5 µg labeled murine TSP-1
T1 construct: also called Cy5.5-labeled murine thrombospondin-1; Cy5.5 labeled TSP-1
T1 sequence (P35441 19-1170 limits assumed): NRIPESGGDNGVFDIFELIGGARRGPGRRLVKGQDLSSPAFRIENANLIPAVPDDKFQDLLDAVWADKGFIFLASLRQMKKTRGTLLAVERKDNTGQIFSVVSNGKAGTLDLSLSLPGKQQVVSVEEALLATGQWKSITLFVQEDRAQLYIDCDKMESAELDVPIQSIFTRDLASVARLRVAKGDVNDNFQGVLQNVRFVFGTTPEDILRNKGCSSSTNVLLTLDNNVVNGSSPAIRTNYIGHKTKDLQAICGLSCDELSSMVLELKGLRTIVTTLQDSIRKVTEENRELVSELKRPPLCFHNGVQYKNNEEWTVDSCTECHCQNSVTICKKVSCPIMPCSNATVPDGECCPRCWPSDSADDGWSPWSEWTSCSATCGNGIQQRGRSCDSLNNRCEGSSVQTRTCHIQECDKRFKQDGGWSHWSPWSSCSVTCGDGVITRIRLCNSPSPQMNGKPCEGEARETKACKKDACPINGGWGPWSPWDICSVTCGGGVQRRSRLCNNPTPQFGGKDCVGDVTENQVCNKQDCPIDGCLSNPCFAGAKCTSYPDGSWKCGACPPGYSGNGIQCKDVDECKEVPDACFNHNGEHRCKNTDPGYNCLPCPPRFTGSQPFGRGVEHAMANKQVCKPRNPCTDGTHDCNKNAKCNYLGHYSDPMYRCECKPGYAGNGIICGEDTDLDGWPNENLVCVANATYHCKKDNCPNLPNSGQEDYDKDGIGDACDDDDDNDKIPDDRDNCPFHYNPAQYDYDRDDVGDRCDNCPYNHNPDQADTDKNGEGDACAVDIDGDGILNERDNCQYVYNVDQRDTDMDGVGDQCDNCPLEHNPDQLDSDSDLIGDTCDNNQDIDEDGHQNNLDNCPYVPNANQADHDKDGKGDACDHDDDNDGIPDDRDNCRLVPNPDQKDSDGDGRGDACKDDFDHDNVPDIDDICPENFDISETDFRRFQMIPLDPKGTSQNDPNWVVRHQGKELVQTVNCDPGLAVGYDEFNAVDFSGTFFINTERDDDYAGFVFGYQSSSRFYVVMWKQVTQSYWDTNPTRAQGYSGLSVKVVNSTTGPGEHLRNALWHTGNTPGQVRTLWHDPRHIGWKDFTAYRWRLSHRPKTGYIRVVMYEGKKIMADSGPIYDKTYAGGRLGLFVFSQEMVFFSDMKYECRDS
Experimental: (§1) Each cell line, grown independently in a cell culture dish, was detached from the dish with trypsin-EDTA. The cells from each dish were then washed with DPBS, counted, and diluted to 10⁵ cells/100 μl PBS. 4 μl of the FAM-vSIRPα-siRNA/RBC resuspension (totaling 10³ RBC and 100 pmol of the vSIRPα-siRNA) was mixed, independently, with each 100 μl dilution of CT26.CL25 cells and CaCO2 cells. Each mixture was incubated for 30 minutes at room temperature (20-25° C.).
Murine TSP-1 (7859-TH, R&D Systems) labeled with Cy5.5 was tested for its ability to be transferred from RBC to CD47 present on the surface of CT26.CL25 cells. Experiments were carried out as in Example 2, except that 5 μg of Cy5.5 labeled TSP-1, rather than 500 pmol of conjugate, was incubated with the RBC.

[2] = target: B1; assay: flow cytometry of CT26.CL25 cells after incubation with mouse RBC loaded with 200 pmol labeled vSIRPα
Experimental: as §1
vSIRPα labeled with Cy5.5 was tested for its ability to be transferred from RBC to CD47 present on the surface of CT26.CL25 cells. Experiments were carried out as in Example 2, except that 200 pmol of the labeled vSIRPα, rather than 500 pmol of conjugate, was incubated with the RBC.

| binding result [1] | binding result [2] | Binder |
| --- | --- | --- |
| binds |  | B1 |
|  | binds | B2 |
